Assay results reported in paper PMC6954210.

How the values were obtained:
[1] = IP, p517 Western blot, IBMX/Fsk stimulation; settings: glycan gained; control: no OGT overexpression
[2] = IP, p-Ser Western blot, IBMX/Fsk-treated HeLa; settings: glycan gained; control: no OGT overexpression
[3] = IP of endogenous PLIN1, p517 Western blot; settings: glycan gained; control: WT mice
[4] = p517 Western blot, fat of 6 h fasted mice; settings: glycan lost; control: WT mice
[5] = Western blot of PLIN1 in iWAT; settings: glycan lost; control: WT mice
[6] = p492/p517 immunofluorescence, IBMX/Fsk-treated primary eWAT adipocytes; settings: glycan lost; control: WT adipocytes

B1: perilipin 1 (PLIN1): OGT overexpression (protein)
parent chain: MSMNKGPTLLDGDLPEQENVLQRVLQLPVVSGTCECFQKTYNSTKEAHPLVASVCNAYEKGVQGASNLAAWSMEPVVRRLSTQFTAANELACRGLDHLEEKIPALQYPPEKIASELKGTISTRLRSARNSISVPIASTSDKVLGATLAGCELALGMAKETAEYAANTRVGRLASGGADLALGSIEKVVEFLLPPDKESAPSSGRQRTQKAPKAKPSLVRRVSTLANTLSRHTMQTTAWALKQGHSLAMWIPGVAPLSSLAQWGASAAMQVVSRRQSEVRVPWLHNLAASQDESHDDQTDTEGEETDDEEEEEESEAEENVLREVTALPNPRGLLGGVVHTVQNTLRNTISAVTWAPAAVLGTVGRILHLTPAQAVSSTKGRAMSLSDALKGVTDNVVDTVVHYVPLPRLSLMEPESEFRDIDNPSAEAERKGSGARPASPESTPRPGQPRGSLRSVRGLSAPSCPGLDDKTEASARPGFLAMPREKPARRVSDSFFRPSVMEPILGRAQYSQLRKKS
other: PLIN1 phosphorylation [1]: abolishes | other: PLIN1 phosphorylation [2]: decreases

B2: perilipin 1 (PLIN1): OGT AKI (adipose rOGT knockin) (protein)
parent chain: B1 parent chain
other: PLIN1 phosphorylation [3]: decreases

B3: perilipin 1 (PLIN1): OGT AKO (eWAT) (protein)
parent chain: B1 parent chain
other: PLIN1 phosphorylation [4]: increases

B4: perilipin 1 (PLIN1): OGT AKO (iWAT) (protein)
parent chain: B1 parent chain
other: PLIN1 phosphorylation [4]: no change

B5: perilipin 1 (PLIN1): OGT AKO (protein)
parent chain: B1 parent chain
expression_or_secretion [5]: no change

B6: perilipin 1 (PLIN1): OGT knockout (protein)
parent chain: B1 parent chain
other: PLIN1 phosphorylation [6]: increases
